Assay in all cases: Recombinant HDAC µSPOT microarray binding assay
Experiment [1] deals with T1, HDAC1 (Homo sapiens, UniProt Q13547).
T1 construct: HDAC1 (full length, C-terminal His tag, C-terminal FLAG tag, BPS Bioscience, cat. #: 50051); FLAG (C); purchased BPS Bioscience 50051
Particulars: µSPOT microarray; for Bottom (dose-response fit): fitted bottom plateau of the binding curve; for Top (dose-response fit): fitted top plateau of the binding curve.

Experiment [2] deals with T2, HDAC2 (Homo sapiens, UniProt Q92769).
T2 construct: HDAC2 (full length, C-terminal His tag, BPS Bioscience, cat. #: 50002); purchased BPS Bioscience 50002
T2 sequence (Q92769 whole entry): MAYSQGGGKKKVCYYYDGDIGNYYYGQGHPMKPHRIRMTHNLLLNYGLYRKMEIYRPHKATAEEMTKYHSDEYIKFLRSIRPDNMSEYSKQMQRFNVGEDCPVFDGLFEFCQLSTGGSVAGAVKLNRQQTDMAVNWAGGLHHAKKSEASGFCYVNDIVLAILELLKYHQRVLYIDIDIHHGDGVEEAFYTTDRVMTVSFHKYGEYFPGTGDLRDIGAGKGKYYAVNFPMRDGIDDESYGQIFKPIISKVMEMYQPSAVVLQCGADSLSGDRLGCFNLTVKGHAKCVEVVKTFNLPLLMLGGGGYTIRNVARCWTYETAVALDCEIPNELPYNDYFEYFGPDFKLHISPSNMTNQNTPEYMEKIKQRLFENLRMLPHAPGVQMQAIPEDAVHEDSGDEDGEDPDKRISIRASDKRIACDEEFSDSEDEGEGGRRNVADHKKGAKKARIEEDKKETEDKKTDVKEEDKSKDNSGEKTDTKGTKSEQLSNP
Particulars: for Bottom (Value) / Top (Value) / HillSlope (Value): HDAC2 microarray dose-response curve fit, X = Asuha, sheet Fig. 3 HDAC2; for Bottom (Value): bottom plateau; for Top (Value): top plateau.

For experiment [3], the target named is T3, HDAC8 (Homo sapiens, UniProt Q9BY41).
T3 construct: HDAC8 (full length, C-terminal His tag, BPS Bioscience, cat. #: 50008); purchased BPS Bioscience 50008
T3 sequence (Q9BY41 1-377): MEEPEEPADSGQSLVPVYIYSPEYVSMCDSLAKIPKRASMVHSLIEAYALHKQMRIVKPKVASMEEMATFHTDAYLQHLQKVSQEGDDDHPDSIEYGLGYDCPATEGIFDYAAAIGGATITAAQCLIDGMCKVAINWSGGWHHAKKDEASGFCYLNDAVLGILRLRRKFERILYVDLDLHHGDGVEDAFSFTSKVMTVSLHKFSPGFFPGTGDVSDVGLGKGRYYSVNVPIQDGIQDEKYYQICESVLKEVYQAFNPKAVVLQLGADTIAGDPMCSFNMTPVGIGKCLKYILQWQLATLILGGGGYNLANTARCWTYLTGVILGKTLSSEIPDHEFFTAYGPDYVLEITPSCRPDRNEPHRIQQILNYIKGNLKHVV
Particulars: for Bottom / HillSlope / Top: HDAC8 µSPOT microarray dose-response fit, X = Asuha, sheet Fig. 3 HDAC8; for Bottom: Bottom Value; for HillSlope: HillSlope Value; for Top: Top Value.

In experiment [4] the target is T4, HDAC3/NCoR2 (Homo sapiens, UniProt O15379).
T4 construct: HDAC3/NCoR2 (full length, C-terminal His tag, NCoR2 N-terminal GST tag); purchased BPS Bioscience 50003
T4 sequence (O15379 whole entry): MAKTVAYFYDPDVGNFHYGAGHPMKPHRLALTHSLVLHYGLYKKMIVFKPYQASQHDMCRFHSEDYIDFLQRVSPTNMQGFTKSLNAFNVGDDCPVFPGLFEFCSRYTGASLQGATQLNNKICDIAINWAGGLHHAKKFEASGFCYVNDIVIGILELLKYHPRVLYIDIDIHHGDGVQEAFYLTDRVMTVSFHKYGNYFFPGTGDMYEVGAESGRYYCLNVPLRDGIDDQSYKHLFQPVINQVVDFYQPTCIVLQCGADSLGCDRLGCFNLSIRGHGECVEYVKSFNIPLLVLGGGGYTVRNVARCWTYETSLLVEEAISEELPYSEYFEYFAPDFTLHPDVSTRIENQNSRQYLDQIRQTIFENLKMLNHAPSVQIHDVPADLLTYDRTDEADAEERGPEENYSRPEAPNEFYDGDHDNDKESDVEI
T4 sequence (Q9Y618 389-480 partner limits assumed): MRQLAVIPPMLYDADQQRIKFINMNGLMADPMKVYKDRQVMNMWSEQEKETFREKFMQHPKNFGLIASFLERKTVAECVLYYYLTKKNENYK
Particulars: for Bottom (dose-response curve fit): fitted bottom plateau of binding signal; for Top (dose-response curve fit): fitted top plateau of binding signal.

Setting [5] is: dose-response fit parameter, H4 K12X (X = Asuha) peptides, HDAC1.
The mark [6] stands for this setting: dose-response fit parameter, µSPOT microarray, H4 K12X (X = Asuha) peptides, HDAC2.
Setting [7] is: dose-response fit parameter, µSPOT microarray, H4 K12X (X = Asuha) peptides, HDAC3.
The mark [8] stands for this setting: recombinant HDAC1, Fig. 3, X = Asuha, Hill slope of the binding curve.
Where [9] appears, read: recombinant HDAC1, Fig. 3, X = Asuha.
The mark [10] stands for this setting: HDAC3 µSPOT microarray, Fig. 3, Hill slope of dose-response fit, X = Asuha.
The mark [11] stands for this setting: HDAC3 µSPOT microarray, Fig. 3, X = Asuha.

Residues, ends and D or L forms follow the SMILES beside them.
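For Bottom (Value) in this document: relative spot intensity from the six enzyme-concentration slides imaged together.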
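For Bottom (dose-response curve fit) in this document: peptide spots on cellulose slides incubated with rising HDAC enzyme concentrations, imaged together, four-parameter logistic fit, EC50 is enzyme concentration giving half-maximal binding signal, two experiments.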
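For Bottom (dose-response fit) in this document: slides with spotted peptides incubated with six HDAC concentrations in HEPES buffer pH 7.4, spot intensities fitted by four-parameter logistic, EC50 as enzyme concentration giving half-maximal binding signal.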
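For Bottom in this document: relative spot intensity from the six enzyme-concentration slides imaged together.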
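For LogEC50 (M) in this document: peptide spots on cellulose slides incubated with rising HDAC enzyme concentrations, imaged together, four-parameter logistic fit, EC50 is enzyme concentration giving half-maximal binding signal, two experiments.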
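For Top (Value) in this document: relative spot intensity from the six enzyme-concentration slides imaged together.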
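For Top (dose-response curve fit) in this document: peptide spots on cellulose slides incubated with rising HDAC enzyme concentrations, imaged together, four-parameter logistic fit, EC50 is enzyme concentration giving half-maximal binding signal, two experiments.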
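For Top (dose-response fit) in this document: slides with spotted peptides incubated with six HDAC concentrations in HEPES buffer pH 7.4, spot intensities fitted by four-parameter logistic, EC50 as enzyme concentration giving half-maximal binding signal.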
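For Top in this document: relative spot intensity from the six enzyme-concentration slides imaged together.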

T1 sequence (Q13547 whole entry): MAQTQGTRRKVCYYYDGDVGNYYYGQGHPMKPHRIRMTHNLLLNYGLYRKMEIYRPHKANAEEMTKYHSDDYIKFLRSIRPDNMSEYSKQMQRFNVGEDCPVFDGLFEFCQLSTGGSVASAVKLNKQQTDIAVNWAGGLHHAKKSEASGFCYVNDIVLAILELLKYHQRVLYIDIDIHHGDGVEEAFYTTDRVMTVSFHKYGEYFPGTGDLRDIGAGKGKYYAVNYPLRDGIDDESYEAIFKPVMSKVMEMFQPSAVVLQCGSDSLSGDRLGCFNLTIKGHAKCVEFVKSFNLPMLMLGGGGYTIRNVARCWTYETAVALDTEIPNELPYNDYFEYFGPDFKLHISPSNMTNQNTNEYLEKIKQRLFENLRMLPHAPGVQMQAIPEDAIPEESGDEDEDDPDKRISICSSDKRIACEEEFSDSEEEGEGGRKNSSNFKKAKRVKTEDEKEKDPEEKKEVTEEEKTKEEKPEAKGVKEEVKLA

As for “P12 (KGLGXGGA; K12 replaced by Asuha (X))”, in experiment [1] (setting [5]), the Bottom amounted to 0.01, the HillSlope is 0.67 and the Top is listed as 0.47. Moreover, in experiment [2] (setting [6]), the Bottom is listed as 0.02, the HillSlope was 7.89 and the Top was 0.14. Also, the “HillSlope (Value)” value in experiment [3] (Hill slope of the µSPOT microarray dose-response fit, X = Asuha peptides) is 1.3. In experiment [3] (fitted bottom of the µSPOT microarray dose-response curve, X = Asuha peptides), the “Bottom (Value)” value is reported as 0.02. Besides, the “Top (Value)” value in experiment [3] (fitted top of the µSPOT microarray dose-response curve, X = Asuha peptides) amounted to 0.58. In experiment [4] (setting [7]), the Bottom was 0.04, the HillSlope came out at 2.48 and the Top is given as 0.98. Further, the “LogEC50 (M)” value in experiment [4] (log of EC50 in M, dose-response fit, µSPOT microarray, H4 K12X (X = Asuha) peptides, HDAC3) is on record as -8.71 M.
On to `CC[C@H](C)[C@H](NC(=O)[C@H](C)NC(=O)[C@H](CC(C)C)NC(=O)[C@H](CCC(N)=O)NC(=O)[C@H](CC(C)C)NC(=O)[C@H](Cc1c[nH]cn1)NC(=O)[C@H](CCCNC(=N)N)NC(=O)[C@@H]1CCCN1C(=O)[C@@H](NC(=O)[C@@H](NC(=O)[C@H](CCCNC(=N)N)NC(=O)[C@@H](NC(C)=O)[C@@H](C)O)[C@@H](C)CC)[C@@H](C)CC)C(=O)N[C@@H](CCCNC(=N)N)C(=O)N[C@@H](CC(N)=O)C(=O)N[C@@H](CC(=O)O)C(=O)N[C@@H](CCC(=O)O)C(N)=O` [H2A 76-91] (Ac-TRIIPRHLQLAIRNDE-NH2), for which, in experiment [1] (setting [8]), the HillSlope stood at 0.92. Also, in experiment [1] (setting [9]), the “Bottom (dose-response fit)” value was 0.02 and the “Top (dose-response fit)” value amounted to 2.64. In experiment [2], the “Bottom (Value)” value is listed as 0.03, the “Top (Value)” value was 73.18 and the “HillSlope (Value)” value is given as 0.93. For the same compound, in experiment [3], the Bottom was 0.03, the HillSlope turned out to be 7.33 and the Top was 0.15. In addition, in experiment [4] (setting [10]), the HillSlope came to 1.12. Moreover, in experiment [4] (setting [11]), the “Bottom (dose-response curve fit)” value was found to be 0.01 and the “Top (dose-response curve fit)” value came out at 1.3.
On to “H2A 55-70 (LEYLTAEILELAGNAA; UniProt P0C0S8 56-71, looked up, fragment)”, for which the HillSlope in experiment [1] (setting [8]) amounted to 1.43. Besides, in experiment [1] (setting [9]), the “Bottom (dose-response fit)” value came to 0.02 and the “Top (dose-response fit)” value is given as 0.27. In experiment [2], the “Bottom (Value)” value is 0.01, the “Top (Value)” value was 2.34 and the “HillSlope (Value)” value stood at 0.64. Moreover, in experiment [3], the Bottom came to 0.02, the HillSlope worked out at 0.59 and the Top came to 3.05. The HillSlope in experiment [4] (setting [10]) was found to be 1.26. Further, in experiment [4] (setting [11]), the “Bottom (dose-response curve fit)” value was found to be 0 and the “Top (dose-response curve fit)” value came out at 0.64.

Source of the values: publication PMC7782793, “Hydroxamic acid-modified peptide microarrays for profiling isozyme-selective interactions and inhibition of histone deacetylases” (Nature Communications, 2021).
